Patent publication US20230087805A1

Legend:
[1] = biological target: C1ND (recombinant human CEACAM1 N-domain, residues 35-142, C-terminal Strep-Tag II, made in Expi293 cells) (human) (UniProt P13688); test: isothermal titration calorimetry, HopQ^AD titration with C1ND, 25 °C, 1:1 stoichiometry
[2] = biological target: C1ND (recombinant human CEACAM1 N-domain, residues 35-142, C-terminal Strep-Tag II, made in Expi293 cells) (human) (UniProt P13688); test: ELISA, C1ND coated, HopQ fragments titrated

Substance	Kd [1] [nM]	fold reduction of CEACAM1 binding affinity against HopQ^AD [2] [fold]
HopQ^AD (HopQ adhesin domain; soluble HopQ type I fragment of H. pylori strain G27, residues 37-463, C-terminal 6x His-tag)	296	
HopQ^ADΔID (HopQ^AD in which amino acids 190-218 of the mature protein are replaced by two glycines)		10
